Measured values as given in PMC2764441.
“And” between values parts separate entries of the source, which are not always exact repeats. Identical values can stand only once.

Assays:
[1] = biological target: T1, NF-κB p50 (recombinant human p50) (human), P19838; experiment: cross-linking; conditions: remark: other sources report otherwise
T1 chain: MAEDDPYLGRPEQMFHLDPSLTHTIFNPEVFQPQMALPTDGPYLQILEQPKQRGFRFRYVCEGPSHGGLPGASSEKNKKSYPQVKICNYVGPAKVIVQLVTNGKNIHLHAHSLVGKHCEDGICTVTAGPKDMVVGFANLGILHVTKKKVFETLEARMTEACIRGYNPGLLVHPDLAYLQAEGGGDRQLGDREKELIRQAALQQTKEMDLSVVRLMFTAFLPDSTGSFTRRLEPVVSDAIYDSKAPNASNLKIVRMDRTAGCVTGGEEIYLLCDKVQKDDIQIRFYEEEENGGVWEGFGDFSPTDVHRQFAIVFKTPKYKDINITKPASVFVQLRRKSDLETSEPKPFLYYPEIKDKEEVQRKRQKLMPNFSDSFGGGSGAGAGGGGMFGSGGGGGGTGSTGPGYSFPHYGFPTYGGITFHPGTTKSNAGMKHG

[2] = biological target: T2, NF-κB p65 (recombinant p65) (not stated (human or murine protein purified)), Q04207; experiment: cross-linking; conditions: remark: other sources report otherwise
T2 chain: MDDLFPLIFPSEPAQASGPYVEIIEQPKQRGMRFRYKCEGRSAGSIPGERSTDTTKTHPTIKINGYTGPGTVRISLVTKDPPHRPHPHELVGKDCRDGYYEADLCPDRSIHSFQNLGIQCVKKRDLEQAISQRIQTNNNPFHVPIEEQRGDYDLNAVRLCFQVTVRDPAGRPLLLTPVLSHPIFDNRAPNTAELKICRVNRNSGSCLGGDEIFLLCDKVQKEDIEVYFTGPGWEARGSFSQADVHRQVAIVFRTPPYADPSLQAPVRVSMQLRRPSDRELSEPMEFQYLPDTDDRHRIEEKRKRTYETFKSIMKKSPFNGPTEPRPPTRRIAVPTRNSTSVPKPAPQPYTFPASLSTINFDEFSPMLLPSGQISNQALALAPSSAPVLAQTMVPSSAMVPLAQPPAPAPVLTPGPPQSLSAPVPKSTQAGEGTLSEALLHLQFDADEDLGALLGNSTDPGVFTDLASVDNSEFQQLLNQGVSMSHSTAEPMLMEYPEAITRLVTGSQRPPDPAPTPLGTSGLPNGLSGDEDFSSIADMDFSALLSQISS

[3] = biological target: NF-kB p65 homodimer, murine (mouse, UniProt Q04207 19-306); experiment: EMSA
[4] = biological target: NF-kB p65 homodimer, human (human, UniProt Q04206 19-306); experiment: EMSA
NF-kB p65 homodimer, human, sequence (Q04206 19-306): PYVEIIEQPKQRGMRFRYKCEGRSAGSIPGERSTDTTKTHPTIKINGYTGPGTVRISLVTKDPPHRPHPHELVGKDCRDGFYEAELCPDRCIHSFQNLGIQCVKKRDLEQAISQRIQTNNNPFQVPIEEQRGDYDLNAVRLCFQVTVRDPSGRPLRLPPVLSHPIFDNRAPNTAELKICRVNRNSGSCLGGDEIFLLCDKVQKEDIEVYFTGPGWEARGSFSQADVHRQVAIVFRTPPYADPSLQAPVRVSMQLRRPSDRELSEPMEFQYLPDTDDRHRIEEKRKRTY

B1: NF-κB p50 (recombinant human p50), P19838 1-433 (natural protein)
chain: T1 chain
stoichiometry N [1]: 2 and 4

B2: NF-κB p65 (recombinant p65), Q04207 1-549 (natural protein)
chain: T2 chain
stoichiometry N [2]: 2

B3: R1 anti-p65 RNA aptamer (structured_RNA)
RNA: GAAGCUUACAAGAAGGACAGCACGAAUAAAACCUGCGUAAAUCCGCCCCAUUUGUGUAAGGGUAGUGGGUCGAAUUCCGCUCA
Kd [3]: 38 ± 20 nM | binding result [4]: binds
